Laboratory results as given in PMC12713080.

How the values were obtained:
[1] = molecular target: copper (Cu pull-down beads); test: copper pull-down, IB quantified; settings: HEK293T cell lysate; mean+/-SD, n = 3; parent: est. 1.9; read off a plot
[2] = molecular target: copper (Cu-charged NTA beads); test: NTA-copper bead pull-down of purified protein, IB quantified; settings: 0.5 h at 4 °C; washed with NETN buffer (20 mm Tris-HCl (PH 8.0), 300 mm NaCl, 0.5% NP-40, 1 mm EDTA) 5 times; mean+/-SD, n = 3; parent: est. 2.4; read off a plot

| Substance | response [1] | response [2] |
| --- | --- | --- |
| HA‐TAK1 (from UniProt O43318) H154A | 1 |  |
| HA‐TAK1 (from UniProt O43318) H154A; M196A | 0.95 |  |
| HA‐TAK1 (from UniProt O43318) M196A | 0.8 |  |
| TAK1-N H154A; M196A |  | 0.4 |
